From article PMC12646664 come the findings set out here.

This assay has as its target Gα-interacting vesicle-associated protein (GIV), endogenous (human (endogenous in THP1)) (UniProt Q3V6T2).
UniProt Q3V6T2, sequence (Q3V6T2 whole entry): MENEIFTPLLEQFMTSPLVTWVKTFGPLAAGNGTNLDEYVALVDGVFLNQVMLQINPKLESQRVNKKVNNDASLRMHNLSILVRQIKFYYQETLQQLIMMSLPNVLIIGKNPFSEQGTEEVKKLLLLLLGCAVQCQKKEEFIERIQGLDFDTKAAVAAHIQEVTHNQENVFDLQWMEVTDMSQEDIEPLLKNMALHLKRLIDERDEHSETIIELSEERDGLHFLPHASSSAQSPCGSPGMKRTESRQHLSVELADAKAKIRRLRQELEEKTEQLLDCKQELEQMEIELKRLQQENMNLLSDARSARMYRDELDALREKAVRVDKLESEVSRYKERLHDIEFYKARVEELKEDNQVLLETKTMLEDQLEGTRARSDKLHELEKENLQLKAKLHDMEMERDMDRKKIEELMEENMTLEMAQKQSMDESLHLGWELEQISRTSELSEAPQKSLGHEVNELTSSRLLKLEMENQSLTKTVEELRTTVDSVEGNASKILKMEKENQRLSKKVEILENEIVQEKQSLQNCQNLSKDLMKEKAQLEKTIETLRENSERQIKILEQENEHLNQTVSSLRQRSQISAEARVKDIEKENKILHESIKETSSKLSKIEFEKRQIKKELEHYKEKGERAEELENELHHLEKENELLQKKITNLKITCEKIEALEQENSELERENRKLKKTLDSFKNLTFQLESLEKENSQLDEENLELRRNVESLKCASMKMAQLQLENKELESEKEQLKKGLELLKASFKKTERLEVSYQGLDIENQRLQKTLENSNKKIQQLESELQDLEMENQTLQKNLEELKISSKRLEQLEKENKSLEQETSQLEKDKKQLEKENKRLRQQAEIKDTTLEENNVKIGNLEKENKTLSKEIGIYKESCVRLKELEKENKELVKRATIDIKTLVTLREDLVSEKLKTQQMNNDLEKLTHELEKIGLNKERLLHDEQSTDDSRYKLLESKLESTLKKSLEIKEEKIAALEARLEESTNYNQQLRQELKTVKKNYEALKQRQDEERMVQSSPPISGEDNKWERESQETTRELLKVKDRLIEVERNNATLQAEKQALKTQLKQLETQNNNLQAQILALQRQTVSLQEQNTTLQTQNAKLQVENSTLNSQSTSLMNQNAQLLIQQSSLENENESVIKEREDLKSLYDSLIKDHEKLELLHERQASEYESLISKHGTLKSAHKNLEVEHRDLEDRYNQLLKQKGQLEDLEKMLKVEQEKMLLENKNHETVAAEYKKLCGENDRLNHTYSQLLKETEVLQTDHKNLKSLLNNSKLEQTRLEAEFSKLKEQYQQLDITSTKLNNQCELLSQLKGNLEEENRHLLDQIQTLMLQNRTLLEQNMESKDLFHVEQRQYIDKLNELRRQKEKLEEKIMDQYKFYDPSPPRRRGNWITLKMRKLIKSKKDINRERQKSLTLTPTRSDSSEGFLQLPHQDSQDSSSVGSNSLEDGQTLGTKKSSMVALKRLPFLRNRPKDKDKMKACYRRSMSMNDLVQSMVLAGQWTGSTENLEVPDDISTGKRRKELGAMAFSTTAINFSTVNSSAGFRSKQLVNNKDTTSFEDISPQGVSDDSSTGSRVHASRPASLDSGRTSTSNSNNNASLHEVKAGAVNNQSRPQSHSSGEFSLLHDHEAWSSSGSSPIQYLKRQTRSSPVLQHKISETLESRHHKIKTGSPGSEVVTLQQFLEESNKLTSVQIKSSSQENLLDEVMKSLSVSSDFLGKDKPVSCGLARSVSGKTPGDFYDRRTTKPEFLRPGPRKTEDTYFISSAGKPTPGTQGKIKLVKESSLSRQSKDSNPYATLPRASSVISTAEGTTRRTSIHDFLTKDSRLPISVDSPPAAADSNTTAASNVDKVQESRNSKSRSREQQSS

For “HA-NOD2 G908R (from UniProt Q9HC29 1-1040) (natural protein)”, the suppression by MDP pretreatment (10 μg/mL) of LPS (100 ng/mL)-induced NF-κB activation, luciferase reporter assay in HeLa cells with NOD2 G908R came out at 7 % protection.
Regarding “HA-NOD2 (wild type) (from UniProt Q9HC29 1-1040) (natural protein)”, the suppression by MDP pretreatment (10 μg/mL) of LPS (100 ng/mL)-induced NF-κB activation, luciferase reporter assay in HeLa cells with NOD2-WT turned out to be 65 % protection.
For the substance “HA-NOD2 1007fs (from UniProt Q9HC29 1-1040) (natural protein)”, the suppression by MDP pretreatment (10 μg/mL) of LPS (100 ng/mL)-induced NF-κB activation, luciferase reporter assay in HeLa cells with NOD2-1007fs was found to be 20 % protection.
With “HA-NOD2 R702W (from UniProt Q9HC29 1-1040) (natural protein)”, the suppression by MDP pretreatment (10 μg/mL) of LPS (100 ng/mL)-induced NF-κB activation, luciferase reporter assay in HeLa cells with NOD2 R702W was found to be 45 % protection.
